Test results as given in the supplement of paper PMC10567573.

B1: MIA2 (parent)
chain: DMVSNIELPTRIHEEVYFEPSSSK
B2: KLHL12 (parent)
chain: REESLPNLLQYVRMPLLTPRYITD

Variants of: B1
Assay: protein stability index of a GFP-peptide fusion (GPS, HEK-293T) (PSI 1-6); higher = more stable
Details: c terminus: a fixed tail appended
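Further: lentivirally expressed fusions sorted by FACS into six bins by GFP to DsRed ratio, PSI derived from sequencing read proportions per bin multiplied by bin number.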

Protein stability index of substitutions, site by site:
D1: S 3.5 | K 3.93 | I 2.36 | Y 3.42 | V 1.98 | G 3.65 | C 2.86 | T 3.63 | F 2.87 | Q 3.95 | P 4.09 | M 2.73 | R 4.25 | W 2.63 | N 4.15 | L 3.11 | E 3.16 | H 4.67 | A 3.62
V3: F 3.73 | A 3.79 | L 3.53 | I 4.26 | C 3.97 | Q 4.02 | T 3.04 | N 3.86 | R 4.56 | D 3.89 | P 4.1 | E 4.65 | M 4.09 | G 4.23 | K 4.02 | H 3.56 | S 4.26 | W 3.15 | Y 3.87
S4: H 4.29 | C 3.44 | E 4.48 | M 3.51 | L 3.12 | K 4.07 | G 3.82 | F 2.35 | A 3.97 | D 3.98 | N 4.03 | I 1.93
M2: G 4.78 | E 5.23 | T 5.12 | H 4.48 | K 3.55 | I 3.62 | Q 5.01 | F 3.28 | C 4.99 | S 5.02 | P 5.15 | W 2.8 | N 5.1 | V 3.64 | A 5.19 | L 3.7 | R 4.18 | Y 3.72 | D 5.43

Variants of: B2
Assay: as above
Details: c terminus: a fixed tail appended

Protein stability index: each site, then its substitutions
Y21: L 2.62 | H 3.08 | G 3.4 | C 2.95 | T 3.26 | Q 3.85 | S 3.37 | M 2.97 | P 3.15 | K 3.93 | V 2.72 | A 3.59 | R 3.24 | F 2.22 | D 3.69 | N 3.25 | I 2.84 | E 3.17 | W 1.79
I22: R 3.84 | H 2.86 | L 2.4 | C 2.55 | W 1.93 | E 3.22 | G 2.4 | Q 2.54 | D 3.27 | Y 2.34 | T 3.39 | A 2.76 | K 3.71 | V 2.18 | P 3.71 | M 1.94 | F 1.93 | S 2.72 | N 2.71
T23: L 2.02 | W 1.7 | V 2.04 | R 3.83 | N 2.85 | Y 2.09 | M 2.61 | H 2.58 | I 2.12 | S 2.66 | E 2.81 | G 2.48 | F 1.62 | D 3.12 | P 2.57 | Q 2.65 | A 2.9 | C 2.03 | K 3.35
R20: H 2.56 | G 3.29 | V 1.92 | S 2.72 | F 1.95 | Q 2.54 | C 2.12 | W 1.22 | K 3.48 | I 2.68 | M 1.97 | N 2.78 | P 2.21 | Y 1.67 | E 2.7 | A 2.19 | L 2.55 | D 3.03 | T 2.15
D24: S 2.01 | A 1.84 | H 2.06 | P 2.04 | E 2.26 | F 2.04 | V 1.57 | C 1.81 | I 3.11 | T 2.17 | K 2.64 | L 1.71 | W 2.11 | Q 2.5 | R 2.75 | N 2.35 | M 1.6 | G 2.28 | Y 2.22
P19: W 2.41 | V 2.22 | Y 1.4
